# Assay results reported in PMC1669734 (Nucleic Acids Research, 2006).
# T1: 35S-MCM (T.acidophilum MCM labeled with 35S-Met) (Thermoplasma acidophilum, UniProt Q9HK10 1-698, 35S-Met)
# T1 sequence (looked up): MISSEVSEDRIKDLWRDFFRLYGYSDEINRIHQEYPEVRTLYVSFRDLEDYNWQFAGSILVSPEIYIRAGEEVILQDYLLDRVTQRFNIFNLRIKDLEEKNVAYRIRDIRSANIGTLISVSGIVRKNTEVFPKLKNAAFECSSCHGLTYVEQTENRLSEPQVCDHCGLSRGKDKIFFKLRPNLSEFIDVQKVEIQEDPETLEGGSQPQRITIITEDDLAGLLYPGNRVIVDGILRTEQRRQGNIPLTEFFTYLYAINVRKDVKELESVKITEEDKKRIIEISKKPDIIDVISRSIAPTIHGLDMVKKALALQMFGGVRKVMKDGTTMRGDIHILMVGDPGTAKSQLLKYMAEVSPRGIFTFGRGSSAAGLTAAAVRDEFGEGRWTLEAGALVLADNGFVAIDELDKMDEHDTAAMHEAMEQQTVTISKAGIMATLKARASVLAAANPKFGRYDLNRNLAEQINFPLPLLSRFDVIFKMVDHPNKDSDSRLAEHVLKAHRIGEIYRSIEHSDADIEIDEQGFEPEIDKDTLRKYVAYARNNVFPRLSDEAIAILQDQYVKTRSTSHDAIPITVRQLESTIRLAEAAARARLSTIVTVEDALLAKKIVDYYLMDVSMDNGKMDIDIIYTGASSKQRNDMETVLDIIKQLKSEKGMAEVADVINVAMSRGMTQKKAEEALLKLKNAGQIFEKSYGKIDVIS
# B1: T.acidophilum Cdc6-2 (Ta0636), C-terminal six His-tag (natural protein, Thermoplasma acidophilum, UniProt Q9HKG3 1-404, looked up)
# chain: MDNPFARFAGTRTIQANLSLLEENYVPDSFPHRENQINEMVTILSSIMRGSRPSNIIVYGKTGTGKTSTTKYVTKMLVEAASNVSVVYVNCEIYDSPYSILVAIANSAGEEKIPELGWPIDRIYRETVERVEKTGKFFIIILDEMDRLIKKNGGDSLYVLLKLMTDVDSVRVSMIGITNDTTVLENIDARIKSRLNQESIVFPPYNASEIRDIISSRLDKVLGPGVVDDTAINLCAAIGAQEHGDARKAIDLMRIAIEIAIRENRNKITENEIYEARERYEMNVLREAISTLPLHSKIVLLSAVVTQEIEPNSVITGEIYENYRRICDDLGFSPLSPRRISDLLTELADYGLLVMDDRNMGKYGRTRSFSVVHQAETIKKYLLEDENLSMFKSSKMPKQTRFDT
# Target: T1, 35S-MCM (T.acidophilum MCM labeled with …)
# Experiment: pull-down
binder,measurement,value
B1,binding result,binds
